From publication PMC6378327, “Modes of Accessing Bicarbonate for the Regulation of Membrane Guanylate Cyclase (ROS-GC) in Retinal Rods and Cones” (eNeuro, 2019)

Molecular target: the molecule itself
Experiment: SEC + other: gel electrophoresis without reducing agents; purified fragment in solution; molecular weight markers during FPLC elution (Superdex 200) and gel electrophoresis performed without reducing agents

B1: core catalytic domain fragment of bovine ROS-GC1 (G817-Y965) (domain or fragment)
chain: not shown
notes: bovine ROS-GC1 (retinal membrane guanylate cyclase 1), core catalytic domain, G817-Y965; numbers count on: the mature protein (according to Goraczniak et al., 1994); Cloned into the BglII/NcoI site of pET30Xa/LIC (Novagen); Residue numbers are on the mature protein, so they are shifted by the length of the signal peptide relative to the precursor entry; also called ROS-GC1 fragment; soluble …
stoichiometry N: 2
